Data taken from patent publication US20230212549A1 (3B PHARMACEUTICALS, published 2023).
Numbered stars: 1 amine (or outer) side, 2 acyl side, 3 side chain; on linkers, the order of the positions; unused ones are H or OH. Bridge positions count the residues as written; N and C are the ends. Square brackets hold non-standard residues; d marks the D form. Primed or numbered codes have the meaning given here. * marks the point of attachment. tMeBn(DOTA-PP) = 1,3,5-trimethylbenzylidene, two thioethers to Cys, third CH2 bound to one N of piperazine whose other N bears DOTA, O=C(O)CN1CCN(CC(=O)O)CCN(CC(=O)N2CCN(Cc3cc(C[*:1])cc(C[*:2])c3)CC2)CCN(CC(=O)O)CC1; Ttds″ = 1,13-diamino-4,7,10-trioxatridecan-succinamic acid spacer, O=C(CCC(=O)[*:2])NCCCOCCOCCOCCCN[*:1]; TBMB(SCH2CH2NH-DOTA) = O=C(O)CN1CCN(CC(=O)O)CCN(CC(=O)NCCSCc2cc(C[*:1])cc(C[*:2])c2)CCN(CC(=O)O)CC1; Ttds = 1,13-diamino-4,7,10-trioxatridecan-succinamic acid, O=C(CCC(=O)[*:2])NCCCOCCOCCOCCCN[*:1]; DOTA = O=C(O)CN1CCN(CC(=O)O)CCN(CC(=O)*)CCN(CC(=O)O)CC1; mXylylene = c1cc(C[*:1])cc(C[*:2])c1; Pentanesulfonyl = CCCCCS(=O)(=O)*; NMeF = CN[C@@H](Cc1ccccc1)C(=O)O; αMeF = C[C@](N)(Cc1ccccc1)C(=O)O; 4Pal = N[C@@H](Cc1ccncc1)C(=O)O; Tic = O=C(O)[C@@H]1Cc2ccccc2CN1; 2Thi = N[C@@H](Cc1cccs1)C(=O)O; Aic = NC1(C(=O)O)Cc2ccccc2C1; Hexanoyl = CCCCCC(=O)*

Legend:
[1] = molecular target: Recombinant human FAP (R&D systems, #3715-SE) (human, UniProt Q12884 26-760); test: cell-based or functional assay
[2] = molecular target: T1, fibroblast activation protein (FAP) on FAP-expressing human WI-38 fibroblasts (human, UniProt Q12884 1-760); test: competitive FACS, WI-38 cells, vs Cy5 tracer m3; A = pIC50 >8.0
T1 construct: also called human FAP

pIC50 Category (Activity) [1] | pIC50 Category (FACS) [2] | Binder
> 8 pIC50 | > 8 pIC50 | Ac-MCPPTEFCDH[Aic]RD-NH2 (linker 2-8 via mXylylene; SMILES CSCC[C@H](NC(C)=O)C(=O)N[C@H]1CSCc2cccc(c2)CSC[C@@H](C(=O)N[C@@H](CC(=O)O)C(=O)N[C@@H](Cc2c[nH]cn2)C(=O)NC2(C(=O)N[C@@H](CCCNC(=N)N)C(=O)N[C@@H](CC(=O)O)C(N)=O)Cc3ccccc3C2)NC(=O)[C@H](Cc2ccccc2)NC(=O)[C@H](CCC(=O)O)NC(=O)[C@H]([C@@H](C)O)NC(=O)[C@@H]2CCCN2C(=O)[C@@H]2CCCN2C1=O, also called 3BP-3190) [Ac-Met-[Cys(3MeBn)-Pro-Pro-Thr-Glu-Phe-Cys]-Asp-His-Aic-Arg-Asp-NH2]
> 8 pIC50 | > 8 pIC50 | Hexanoyl-CPPTQFCD-OH (linker 1-7 via TBMB(SCH2CH2NH-DOTA); SMILES CCCCCC(=O)N[C@H]1CSCc2cc(CSCCNC(=O)CN3CCN(CC(=O)O)CCN(CC(=O)O)CCN(CC(=O)O)CC3)cc(c2)CSC[C@@H](C(=O)N[C@@H](CC(=O)O)C(=O)O)NC(=O)[C@H](Cc2ccccc2)NC(=O)[C@H](CCC(N)=O)NC(=O)[C@H]([C@@H](C)O)NC(=O)[C@@H]2CCCN2C(=O)[C@@H]2CCCN2C1=O, also called 3BP-3665) [Hex-[Cys(tMeBn(DOTA-AET))-Pro-Pro-Thr-Gln-Phe-Cys]-Asp-OH]
> 8 pIC50 | > 8 pIC50 | Ac-MCPPTEFCDH[Tic]RD-NH2 (linker 2-8 via mXylylene; SMILES CSCC[C@H](NC(C)=O)C(=O)N[C@H]1CSCc2cccc(c2)CSC[C@@H](C(=O)N[C@@H](CC(=O)O)C(=O)N[C@@H](Cc2c[nH]cn2)C(=O)N2Cc3ccccc3C[C@H]2C(=O)N[C@@H](CCCNC(=N)N)C(=O)N[C@@H](CC(=O)O)C(N)=O)NC(=O)[C@H](Cc2ccccc2)NC(=O)[C@H](CCC(=O)O)NC(=O)[C@H]([C@@H](C)O)NC(=O)[C@@H]2CCCN2C(=O)[C@@H]2CCCN2C1=O, also called 3BP-3189) [Ac-Met-[Cys(3MeBn)-Pro-Pro-Thr-Glu-Phe-Cys]-Asp-His-Tic-Arg-Asp-NH2]
> 8 pIC50 | > 8 pIC50 | Ac-MCPPTEFCDHFR-NH2 (linker 2-8 via mXylylene; SMILES CSCC[C@H](NC(C)=O)C(=O)N[C@H]1CSCc2cccc(c2)CSC[C@@H](C(=O)N[C@@H](CC(=O)O)C(=O)N[C@@H](Cc2c[nH]cn2)C(=O)N[C@@H](Cc2ccccc2)C(=O)N[C@@H](CCCNC(=N)N)C(N)=O)NC(=O)[C@H](Cc2ccccc2)NC(=O)[C@H](CCC(=O)O)NC(=O)[C@H]([C@@H](C)O)NC(=O)[C@@H]2CCCN2C(=O)[C@@H]2CCCN2C1=O, also called 3BP-3200) [Ac-Met-[Cys(3MeBn)-Pro-Pro-Thr-Glu-Phe-Cys]-Asp-His-Phe-Arg-NH2]
> 8 pIC50 | > 8 pIC50 | Ac-MCPPTEFCDH[NMeF]RD-NH2 (linker 2-8 via mXylylene; SMILES CSCC[C@H](NC(C)=O)C(=O)N[C@H]1CSCc2cccc(c2)CSC[C@@H](C(=O)N[C@@H](CC(=O)O)C(=O)N[C@@H](Cc2c[nH]cn2)C(=O)N(C)[C@@H](Cc2ccccc2)C(=O)N[C@@H](CCCNC(=N)N)C(=O)N[C@@H](CC(=O)O)C(N)=O)NC(=O)[C@H](Cc2ccccc2)NC(=O)[C@H](CCC(=O)O)NC(=O)[C@H]([C@@H](C)O)NC(=O)[C@@H]2CCCN2C(=O)[C@@H]2CCCN2C1=O, also called 3BP-3188) [Ac-Met-[Cys(3MeBn)-Pro-Pro-Thr-Glu-Phe-Cys]-Asp-His-Nmf-Arg-Asp-NH2]
> 8 pIC50 | > 8 pIC50 | Ac-M[dC]PPTEFCDHFRD-NH2 (linker 2-8 via mXylylene; SMILES CSCC[C@H](NC(C)=O)C(=O)N[C@@H]1CSCc2cccc(c2)CSC[C@@H](C(=O)N[C@@H](CC(=O)O)C(=O)N[C@@H](Cc2c[nH]cn2)C(=O)N[C@@H](Cc2ccccc2)C(=O)N[C@@H](CCCNC(=N)N)C(=O)N[C@@H](CC(=O)O)C(N)=O)NC(=O)[C@H](Cc2ccccc2)NC(=O)[C@H](CCC(=O)O)NC(=O)[C@H]([C@@H](C)O)NC(=O)[C@@H]2CCCN2C(=O)[C@@H]2CCCN2C1=O, also called 3BP-3175) [Ac-Met-[cys(3MeBn)-Pro-Pro-Thr-Glu-Phe-Cys]-Asp-His-Phe-Arg-Asp-NH2]
> 8 pIC50 | > 8 pIC50 | Ac-MCPPTEFCDH[4Pal]RD-NH2 (linker 2-8 via mXylylene, also called 3BP-3191) [Ac-Met-[Cys(3MeBn)-Pro-Pro-Thr-Glu-Phe-Cys]-Asp-His-Ppa-Arg-Asp-NH2]
> 8 pIC50 | > 8 pIC50 | Hexanoyl-CPPTQFCD-NH2 (linker 1-7 via tMeBn(EuDOTA-PP); also: europium complex of DOTA, also called 3BP-3661) [Hex-[Cys(tMeBn(EuDOTA-PP))-Pro-Pro-Thr-Gln-Phe-Cys]-Asp-NH2]
> 8 pIC50 | > 8 pIC50 | Ac-[dM]CPPTEFCDHFRD-NH2 (linker 2-8 via mXylylene; SMILES CSCC[C@@H](NC(C)=O)C(=O)N[C@H]1CSCc2cccc(c2)CSC[C@@H](C(=O)N[C@@H](CC(=O)O)C(=O)N[C@@H](Cc2c[nH]cn2)C(=O)N[C@@H](Cc2ccccc2)C(=O)N[C@@H](CCCNC(=N)N)C(=O)N[C@@H](CC(=O)O)C(N)=O)NC(=O)[C@H](Cc2ccccc2)NC(=O)[C@H](CCC(=O)O)NC(=O)[C@H]([C@@H](C)O)NC(=O)[C@@H]2CCCN2C(=O)[C@@H]2CCCN2C1=O, also called 3BP-3187) [Ac-met-[Cys(3MeBn)-Pro-Pro-Thr-Glu-Phe-Cys]-Asp-His-Phe-Arg-Asp-NH2]
> 8 pIC50 | > 8 pIC50 | Pentanesulfonyl-CPPTQFCD-NH2 (linker 1-7 via tMeBn(DOTA-PP); SMILES CCCCCS(=O)(=O)N[C@H]1CSCc2cc(cc(CN3CCN(C(=O)CN4CCN(CC(=O)O)CCN(CC(=O)O)CCN(CC(=O)O)CC4)CC3)c2)CSC[C@@H](C(=O)N[C@@H](CC(=O)O)C(N)=O)NC(=O)[C@H](Cc2ccccc2)NC(=O)[C@H](CCC(N)=O)NC(=O)[C@H]([C@@H](C)O)NC(=O)[C@@H]2CCCN2C(=O)[C@@H]2CCCN2C1=O, also called 3BP-3692) [Pentyl-SO2-[Cys(tMeBn(DOTA-PP))-Pro-Pro-Thr-Gln-Phe-Cys]-Asp-NH2]
> 8 pIC50 | > 8 pIC50 | {DOTA}-[Ttds]MCPPTEFCDHFRD-NH2 (linker 3-9 via mXylylene; SMILES CSCC[C@H](NC(=O)CCC(=O)NCCCOCCOCCOCCCNC(=O)CN1CCN(CC(=O)O)CCN(CC(=O)O)CCN(CC(=O)O)CC1)C(=O)N[C@H]1CSCc2cccc(c2)CSC[C@@H](C(=O)N[C@@H](CC(=O)O)C(=O)N[C@@H](Cc2c[nH]cn2)C(=O)N[C@@H](Cc2ccccc2)C(=O)N[C@@H](CCCNC(=N)N)C(=O)N[C@@H](CC(=O)O)C(N)=O)NC(=O)[C@H](Cc2ccccc2)NC(=O)[C@H](CCC(=O)O)NC(=O)[C@H]([C@@H](C)O)NC(=O)[C@@H]2CCCN2C(=O)[C@@H]2CCCN2C1=O) [DOTA-Ttds-Met-[Cys(3MeBn)-Pro-Pro-Thr-Glu-Phe-Cys]-Asp-His-Phe-Arg-Asp-NH2]
> 8 pIC50 | > 8 pIC50 | {DOTA}-[Ttds″]LCPPTEFCDHFRD-NH2 (linker 3-9 via mXylylene; SMILES CC(C)C[C@H](NC(=O)CCC(=O)NCCCOCCOCCOCCCNC(=O)CN1CCN(CC(=O)O)CCN(CC(=O)O)CCN(CC(=O)O)CC1)C(=O)N[C@H]1CSCc2cccc(c2)CSC[C@@H](C(=O)N[C@@H](CC(=O)O)C(=O)N[C@@H](Cc2c[nH]cn2)C(=O)N[C@@H](Cc2ccccc2)C(=O)N[C@@H](CCCNC(=N)N)C(=O)N[C@@H](CC(=O)O)C(N)=O)NC(=O)[C@H](Cc2ccccc2)NC(=O)[C@H](CCC(=O)O)NC(=O)[C@H]([C@@H](C)O)NC(=O)[C@@H]2CCCN2C(=O)[C@@H]2CCCN2C1=O, also called 3BP-3172) [DOTA-Ttds-Leu-[Cys(3MeBn)-Pro-Pro-Thr-Glu-Phe-Cys]-Asp-His-Phe-Arg-Asp-NH2]
> 8 pIC50 | > 8 pIC50 | Ac-MCPPTEFCDHXRD-NH2 (linker 2-8 via mXylylene; not fully specified (residue 11); printed as Ac-Met-[Cys(3MeBn)-Pro-Pro-Thr-Glu-Phe-Cys]-Asp-His-Mpa-Arg-Asp-NH2, also called 3BP-3192) [Ac-Met-[Cys(3MeBn)-Pro-Pro-Thr-Glu-Phe-Cys]-Asp-His-Mpa-Arg-Asp-NH2]
> 8 pIC50 | > 8 pIC50 | CPPTQFX (not fully specified; N-term Hex; X7 = AET (2-aminoethanethiol, no carboxyl group); Cys1/AET7 thioether-bridged by tMeBn carrying InDOTA-AET (indium complex), also called 3BP-3713) [Hex-[Cys(tMeBn(InDOTA-AET))-Pro-Pro-Thr-Gln-Phe-AET]]
> 8 pIC50 | > 8 pIC50 | Ac-MCPPTEFCDH[αMeF]RD-NH2 (linker 2-8 via mXylylene; SMILES CSCC[C@H](NC(C)=O)C(=O)N[C@H]1CSCc2cccc(c2)CSC[C@@H](C(=O)N[C@@H](CC(=O)O)C(=O)N[C@@H](Cc2c[nH]cn2)C(=O)N[C@@](C)(Cc2ccccc2)C(=O)N[C@@H](CCCNC(=N)N)C(=O)N[C@@H](CC(=O)O)C(N)=O)NC(=O)[C@H](Cc2ccccc2)NC(=O)[C@H](CCC(=O)O)NC(=O)[C@H]([C@@H](C)O)NC(=O)[C@@H]2CCCN2C(=O)[C@@H]2CCCN2C1=O, also called 3BP-3203) [Ac-Met-[Cys(3MeBn)-Pro-Pro-Thr-Glu-Phe-Cys]-Asp-His-Amf-Arg-Asp-NH2]
> 8 pIC50 | > 8 pIC50 | Ac-MCPPTE[2Thi]CDHFRD-NH2 (linker 2-8 via mXylylene; SMILES CSCC[C@H](NC(C)=O)C(=O)N[C@H]1CSCc2cccc(c2)CSC[C@@H](C(=O)N[C@@H](CC(=O)O)C(=O)N[C@@H](Cc2c[nH]cn2)C(=O)N[C@@H](Cc2ccccc2)C(=O)N[C@@H](CCCNC(=N)N)C(=O)N[C@@H](CC(=O)O)C(N)=O)NC(=O)[C@H](Cc2cccs2)NC(=O)[C@H](CCC(=O)O)NC(=O)[C@H]([C@@H](C)O)NC(=O)[C@@H]2CCCN2C(=O)[C@@H]2CCCN2C1=O, also called 3BP-3193) [Ac-Met-[Cys(3MeBn)-Pro-Pro-Thr-Glu-Thi-Cys]-Asp-His-Phe-Arg-Asp-NH2]
> 8 pIC50 | > 8 pIC50 | CPPTQFCD (N-term Hex; Cys1/Cys7 thioether-bridged by tMeBn carrying DOTA-AET; D-Asp8; C-term amide, also called 3BP-3681) [Hex-[Cys(tMeBn(DOTA-AET))-Pro-Pro-Thr-Gln-Phe-Cys]-asp-NH2]
> 8 pIC50 | > 8 pIC50 | Ac-CPPTEFCDHFRD-NH2 (linker 1-7 via mXylylene; SMILES CC(=O)N[C@H]1CSCc2cccc(c2)CSC[C@@H](C(=O)N[C@@H](CC(=O)O)C(=O)N[C@@H](Cc2c[nH]cn2)C(=O)N[C@@H](Cc2ccccc2)C(=O)N[C@@H](CCCNC(=N)N)C(=O)N[C@@H](CC(=O)O)C(N)=O)NC(=O)[C@H](Cc2ccccc2)NC(=O)[C@H](CCC(=O)O)NC(=O)[C@H]([C@@H](C)O)NC(=O)[C@@H]2CCCN2C(=O)[C@@H]2CCCN2C1=O, also called 3BP-3202) [Ac-[Cys(3MeBn)-Pro-Pro-Thr-Glu-Phe-Cys]-Asp-His-Phe-Arg-Asp-NH2]
